{"source": "patent US20070286806A1", "about": "“Methods and Compositions for Modulating a Steroid Receptor” (Mount Sinai Hospital, priority 2004, published 2007)", "molecules": {"B1": {"name": "polypyrimidine tract binding protein-associated splicing factor (protein)", "chain": "MSRDRFRSRGGGGGGFHRRGGGGGRGGLHDFRSPPPGMGLNQNRGPMGPGPGQSGPKPPIPPPPPHQQQQQPPPQQPPPQQPPPHQPPPHPQPHQQQQPPPPPQDSSKPVVAQGPGPAPGVGSAPPASSSAPPATPPTSGAPPGSGPGPTPTPPPAVTSAPPGAPPPTPPSSGVPTTPPQAGGPPPPPAAVPGPGPGPKQGPGPGGPKGGKMPGGPKPGGGPGLSTPGGHPKPPHRGGGEPRGGRQHHPPYHQQHHQGPPPGGPGGRSEEKISDSEGFKANLSLLRRPGEKTYTQRCRLFVGNLPADITEDEFKRLFAKYGEPGEVFINKGKGFGFIKLESRALAEIAKAELDDTPMRGRQLRVRFATHAAALSVRNLSPYVSNELLEEAFSQFGPIERAVVIVDDRGRSTGKGIVEFASKPAARKAFERCSEGVFLLTTTPRPVIVEPLEQLDDEDGLPEKLAQKNPMYQKERETPPRFAQHGTFEYEYSQRWKSLDEMEKQQREQVEKNMKDAKDKLESEMEDAYHEHQANLLRQDLMRRQEELRRMEELHNQEMQKRKEMQLRQEEERRRREEEMMIRQREMEEQMRRQREESYSRMGYMDPRERDMRMGGGGAMNMGDPYGSGGQKFPPLGGGGGIGYEANPGVPPATMSGSMMGSDMRTERFGQGGAGPVGGQGPRGMGPGTPAGYGRGREEYEGPNKKPRF", "notes": "expressed from transfected His-PSF vector or in vitro translated"}}, "target": "T1, androgen receptor (Homo sapiens, UniProt P10275)", "T1 construct": "expressed in transfected cells; host or cells: PC-3(AR)2 prostate cancer cells", "T1 sequence (P10275 1-920)": "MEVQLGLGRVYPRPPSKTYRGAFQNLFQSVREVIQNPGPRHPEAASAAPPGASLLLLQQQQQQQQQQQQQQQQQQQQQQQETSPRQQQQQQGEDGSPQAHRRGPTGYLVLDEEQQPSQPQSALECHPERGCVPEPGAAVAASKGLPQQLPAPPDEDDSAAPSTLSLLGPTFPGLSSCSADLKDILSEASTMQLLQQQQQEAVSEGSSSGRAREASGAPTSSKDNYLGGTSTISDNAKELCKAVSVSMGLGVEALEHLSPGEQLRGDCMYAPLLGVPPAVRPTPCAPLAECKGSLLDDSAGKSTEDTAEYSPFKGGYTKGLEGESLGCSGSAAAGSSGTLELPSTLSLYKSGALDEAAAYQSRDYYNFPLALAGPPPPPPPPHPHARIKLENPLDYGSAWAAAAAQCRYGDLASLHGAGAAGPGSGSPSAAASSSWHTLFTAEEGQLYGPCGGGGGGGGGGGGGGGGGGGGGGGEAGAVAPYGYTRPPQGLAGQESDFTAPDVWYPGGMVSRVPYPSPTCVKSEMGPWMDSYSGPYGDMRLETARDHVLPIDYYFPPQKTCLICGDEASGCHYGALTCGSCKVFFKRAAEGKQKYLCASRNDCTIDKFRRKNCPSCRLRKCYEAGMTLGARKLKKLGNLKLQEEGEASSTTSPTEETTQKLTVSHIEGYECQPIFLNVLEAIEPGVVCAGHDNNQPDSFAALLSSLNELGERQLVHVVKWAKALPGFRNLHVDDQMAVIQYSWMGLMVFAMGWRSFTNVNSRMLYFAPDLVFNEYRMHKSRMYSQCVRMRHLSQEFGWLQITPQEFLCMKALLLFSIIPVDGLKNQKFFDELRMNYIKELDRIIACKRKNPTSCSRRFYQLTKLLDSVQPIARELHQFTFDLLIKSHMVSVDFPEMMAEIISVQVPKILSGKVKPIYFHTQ", "experiment": "DHT-induced AR transactivation in PC-3(AR)2 cells, MMTV-Luc reporter", "type": "cell-based", "procedure": "(§1) Prostate cancer cells (stable transfected with androgen receptor) were transiently transfected with PSF-A expression vector together with a MMTV-Luc reporter vector. Cells were treated with either vehicle or 1 nM DHT for at least 24 hours. Luciferase activities were measured and normalized by β-galactosidase acitvity. Data shown in FIG. 10 are the mean of three separate experiments performed in triplicate ±S.E. Note: the empty vector pcDNA3 was added to the DNA mixture to ensure that the amounts of CMV promoter in all the transfection assays are equal.\nas §1, with “(stably” for “(stable”, “PSF-F” for “PSF-A”, “11” for “10”\nPC-3(AR)2 cells are PC-3 cells rendered androgen sensitive by stable transfection of a human androgen receptor cDNA. PC-3(AR)2 cells were transiently transfected with a constant AR expression vector together without or with increasing doses of PSF-A vectors. […]", "data": [{"molecule": "B1", "values": [{"measurement": "production/secretion of PSA", "result": "blocks"}, {"measurement": "androgen receptor activation of the MMTV promoter", "setting": "PC-3(AR)2 cells, 1 nM DHT", "result": "blocks"}]}]}
